Results from patent publication US20220242962A1 (APTEVO RESEARCH AND DEVELOPMENT, published 2022).
Positions count from the first letter of the chain named.

T1: Full-length Human OX40 (human, UniProt P43489 29-277)
T1 sequence: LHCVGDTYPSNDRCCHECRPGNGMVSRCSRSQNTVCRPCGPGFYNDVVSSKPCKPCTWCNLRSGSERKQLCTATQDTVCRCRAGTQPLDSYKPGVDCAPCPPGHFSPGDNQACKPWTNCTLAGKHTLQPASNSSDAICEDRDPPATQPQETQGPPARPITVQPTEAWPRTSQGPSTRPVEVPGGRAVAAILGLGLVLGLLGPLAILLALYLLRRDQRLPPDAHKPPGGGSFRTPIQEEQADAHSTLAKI

T2: Human OX40 ECD-AFH (human)
T2 construct: ECD'; entry includes the C-terminal tags; also called OXF003; Human OX40 ECD-avi-flag-his
T2 chain: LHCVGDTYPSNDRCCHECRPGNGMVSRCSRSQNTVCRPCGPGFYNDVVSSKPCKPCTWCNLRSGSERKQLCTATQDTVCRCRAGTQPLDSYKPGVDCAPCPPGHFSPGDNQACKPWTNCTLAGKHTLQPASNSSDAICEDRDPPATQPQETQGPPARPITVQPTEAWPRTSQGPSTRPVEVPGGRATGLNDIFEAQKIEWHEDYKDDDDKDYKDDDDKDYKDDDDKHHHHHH

T3: Cyno OX40-AFH (cynomolgus monkey)
T3 construct: entry includes the tags; also called OXF005; cyno OX40 ECD
T3 chain: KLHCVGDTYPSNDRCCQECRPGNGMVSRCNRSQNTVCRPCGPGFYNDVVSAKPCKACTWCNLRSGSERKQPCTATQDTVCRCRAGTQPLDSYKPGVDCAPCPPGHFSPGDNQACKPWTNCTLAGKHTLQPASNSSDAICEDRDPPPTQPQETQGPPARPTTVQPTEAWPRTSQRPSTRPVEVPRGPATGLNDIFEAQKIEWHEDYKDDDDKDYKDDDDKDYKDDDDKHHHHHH

T4: Cyno 4-1BB ECD-AFH (cynomolgus monkey)
T4 construct: entry includes the tags; also called FOB004; Cyno CD137 ECD-avi-flag-his
T4 chain: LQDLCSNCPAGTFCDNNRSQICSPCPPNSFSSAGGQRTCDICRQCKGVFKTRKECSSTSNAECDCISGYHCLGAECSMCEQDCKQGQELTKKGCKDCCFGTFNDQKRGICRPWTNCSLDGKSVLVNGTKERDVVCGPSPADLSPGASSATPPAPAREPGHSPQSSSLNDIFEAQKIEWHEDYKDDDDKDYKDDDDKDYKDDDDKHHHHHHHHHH

T5: Full-length Cyno 4-1BB (cynomolgus monkey, UniProt Q07011 24-255 (human entry))
T5 construct: on Jurkat or CHO cells; also called FOB006; cynomolgus 4-1BB
T5 chain: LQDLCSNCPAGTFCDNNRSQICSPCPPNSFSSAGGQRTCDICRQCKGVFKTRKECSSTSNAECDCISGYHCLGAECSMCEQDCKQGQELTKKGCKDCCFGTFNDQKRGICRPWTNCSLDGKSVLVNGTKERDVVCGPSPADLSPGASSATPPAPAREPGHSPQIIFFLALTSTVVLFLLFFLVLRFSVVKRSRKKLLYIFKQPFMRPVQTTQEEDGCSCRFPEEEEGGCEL

T6: Full-length Cyno OX40 (cynomolgus monkey, UniProt P43489 29-277 (human entry))
T6 construct: on CHO-K1SV cells; also called OXF004; cynomolgus OX40
T6 chain: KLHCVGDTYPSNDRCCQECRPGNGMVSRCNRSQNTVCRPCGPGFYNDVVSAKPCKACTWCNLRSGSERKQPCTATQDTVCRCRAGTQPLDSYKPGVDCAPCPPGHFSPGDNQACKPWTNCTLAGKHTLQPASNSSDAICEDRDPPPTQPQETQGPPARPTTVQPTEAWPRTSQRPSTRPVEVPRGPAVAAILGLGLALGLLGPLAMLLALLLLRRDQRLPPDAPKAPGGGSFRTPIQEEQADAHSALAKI

B1: FXX01110 (bispecific antibody)
chain: EVQLVQSGAEVKKPGASVKVSCKASGYTFTSYWMNWVRQAPGQGLEWMGNIYPSGGSTNYAQKFQGRVTMTVDTSTSTVYMELSSLRSEDTAVYYCASFSDGYYAYAMDYWGQGTLVTVSSGGGGSGGGGSGGGGSGGGGSEIVMTQSPATLSLSPGERATLSCRASQSVSSYLNWYQQKPGQAPRLLIYYASRRHTGIPARFSGSGSGTDFTLTISSLQPEDFAVYYCQQGYNLPYTFGQGTKVEIKEPKSSDKTHTCPPCPAPPAAAPSVFLFPPKPKDTLMISRTPEVTCVVVDVSHEDPEVKFNWYVDGVEVHNAKTKPREEQYNSTYRVVSVLTVLHQDWLNGKEYKCAVSNKALPAPIEKTISKAKGQPREPQVYTLPPSRDELTKNQVSLTCLVKGFYPSDIAVEWESNGQPENNYKTTPPVLDSDGSFFLYSKLTVDKSRWQQGNVFSCSVMHEALHNHYTQKSLSLSPGGGGSPSSYVLTQPPSVSVAPGQTARITCGGNNIGSKSVNWFQQKPGQAPVLVVYDDSGRPSGIPARFSGSTSGNTATLTISRVEAGDEADYYCQVWDSSSDHVVFGGGTKLTVLGGGGSGGGGSGGGGSGGGGSQVQLVESGGGVVQPGRSLRLSCAASGFTLSYYGMHWVRQAPGKGLEWVAAISHDGSDKYYADSVKGRFTISRDNSKNTLYLQMNSLRAEDTAVYYCSNDQFDPWGQGTLVTVSSR
notes: ADAPTIR anti-4-1BB x anti-OX40, pI variant of the anti-OX40 scFv
B2: FXX01118 (bispecific antibody)
chain: B1 chain with Q500K, T690R
notes: ADAPTIR anti-4-1BB x anti-OX40, pI variant
B3: FXX01112 (bispecific antibody)
chain: B1 chain with I541V, A543S
notes: as for B2
B4: FXX01116 (bispecific antibody)
chain: B1 chain with I541V, A543S, T690R
notes: as for B2
B5: FXX01113 (bispecific antibody)
chain: B1 chain with T690R
notes: as for B2
B6: FXX01114 (bispecific antibody)
chain: B1 chain with T690R
notes: as for B2
B7: FXX01117 (bispecific antibody)
chain: B1 chain with A543K, T690R
notes: as for B2

Legend:
[1] = biological target: T1, Full-length Human OX40; experiment: cell-based or functional assay
[2] = biological target: Full-length Human 4-1BB (human, UniProt Q07011 24-255); experiment: cell-based or functional assay
[3] = biological target: T2, Human OX40 ECD-AFH; experiment: SPR (Biacore 8K), construct captured, monovalent ECD
Experimental: (§1) Mouse anti-human IgG (GE, BR-1008-39) at 25 μg/ml in 10 mM sodium acetate pH 5.0 was immobilized at a density of ˜10,000 response units (RU) onto each flow cell of a CM5 research-grade sensor chip (GE) by standard amine coupling chemistry. Each binding protein at approximately 100 nM in HBS-EP+ with 0.2% BSA buffer was captured in a flow cell with the immobilized anti-human IgG at a flow rate of 10 μL/min for 20 seconds, leaving one flow cell surface unmodified as the reference. Using a single-cycle kinetics mode, five different concentrations of ECD were sequentially injected through each flow cell at 30 μL/min for 300 seconds followed by a 600 second dissociation period. Regeneration was achieved by injection of 3 M MgCl₂ at a flow rate of 30 μL/min for 30 seconds followed by HBS-EP+ with 0.2% BSA buffer stabilization for 1 min.
(§2) Sensorgrams obtained from kinetic SPR measurements were analyzed by the double subtraction method. The signal from the reference flow cell was subtracted from the analyte binding response obtained from flow cells with immobilized or captured ligands. Buffer reference responses were then averaged from multiple injections. The averaged buffer reference responses were then subtracted from analyte binding responses, and the final double-referenced data were analyzed with Biacore T200 Evaluation software (2.0, GE), globally fitting data to derive kinetic parameters. All sensorgrams were fitted using a simple one-to-one binding model.
(§3) Using the BIACORE 8K SPR system, the affinity of these constructs for human and cyno 4-1BB, and human and cyno OX40 ECD, were determined using the methods described above. Monovalent binding affinity was determined by capturing the ADAPTIR™ bispecific construct on the chip and injecting monovalent ECD of the target at multiple concentrations.

[4] = biological target: T3, Cyno OX40-AFH; experiment: as above
Experimental: as §1, §2, §3

[5] = biological target: T7, Human 4-1BB ECD-AFH (human); experiment: as above
T7 construct: entry includes the tags; also called FOB003; HUMAN CD137 ECD-AVI-FLAG-HIS
Experimental: as §1, §2, §3

[6] = biological target: T4, Cyno 4-1BB ECD-AFH; experiment: as above
Experimental: as §1, §2, §3

[7] = biological target: T5, Full-length Cyno 4-1BB; experiment: flow cytometry on Jurkat cells transfected with cynomolgus 4-1BB, goat anti-human Fc secondary antibody, MFI (Mean)
Experimental: (§4) Serial dilutions of ADAPTIR™ constructs were incubated with transfected target cells and subsequently labelled with a fluorescently-conjugated goat-a-human Fc secondary antibody. […] (See Example 25.)

[8] = biological target: T6, Full-length Cyno OX40; experiment: flow cytometry on CHOK1SV cells transfected with cynomolgus OX40, goat anti-human Fc secondary antibody, MFI (Mean)
Experimental: as §4

OX40 Reporter Assay EC50 [1]	OX40 Reporter Assay Max induction [1]	4-1BB Reporter Assay EC50 [2]	4-1BB Reporter Assay Max induction [2]	Kd [3]	koff [3]	kon [3]	Kd [4]	koff [4]	kon [4]	Kd [5]	koff [5]	kon [5]	Kd [6]	koff [6]	kon [6]	EC50 (read off the curve) [7]	EC50 (read off the curve) [8]	Binder
0.017 nM	5.9e+06	0.021 nM	1.38e+06	< 1 nM	0.00036 s⁻¹	910000 M⁻¹ s⁻¹	< 1 nM	0.00029 s⁻¹	1.1e+06 M⁻¹ s⁻¹	18 nM	0.0048 s⁻¹	260000 M⁻¹ s⁻¹	70 nM	0.0077 s⁻¹	110000 M⁻¹ s⁻¹	~0.3 nM	1 to 2 nM	B1
0.016 nM	6.28e+06	0.018 nM	1.38e+06	< 1 nM	0.00031 s⁻¹	840000 M⁻¹ s⁻¹	< 1 nM	0.00024 s⁻¹	1.1e+06 M⁻¹ s⁻¹	17 nM	0.0046 s⁻¹	270000 M⁻¹ s⁻¹	80 nM	0.0077 s⁻¹	96000 M⁻¹ s⁻¹	~0.3 nM	1 to 2 nM	B2
0.019 nM	6.17e+06	0.014 nM	1.45e+06	< 1 nM	0.00057 s⁻¹	790000 M⁻¹ s⁻¹	< 1 nM	0.00031 s⁻¹	870000 M⁻¹ s⁻¹	17 nM	0.0045 s⁻¹	260000 M⁻¹ s⁻¹	77 nM	0.008 s⁻¹	100000 M⁻¹ s⁻¹	~0.3 nM	1 to 2 nM	B3
0.017 nM	5.95e+06	0.019 nM	1.39e+06	< 1 nM	0.00044 s⁻¹	880000 M⁻¹ s⁻¹	< 1 nM	0.00027 s⁻¹	1e+06 M⁻¹ s⁻¹	17 nM	0.0046 s⁻¹	270000 M⁻¹ s⁻¹	81 nM	0.0079 s⁻¹	98000 M⁻¹ s⁻¹	~0.3 nM	1 to 2 nM	B4
0.016 nM	6.1e+06	0.019 nM	1.37e+06	< 1 nM	0.00031 s⁻¹	890000 M⁻¹ s⁻¹	< 1 nM	0.00028 s⁻¹	980000 M⁻¹ s⁻¹	15 nM	0.0046 s⁻¹	300000 M⁻¹ s⁻¹	82 nM	0.0078 s⁻¹	95000 M⁻¹ s⁻¹	~0.3 nM	1 to 2 nM	B5
0.018 nM	6.08e+06	0.018 nM	1.43e+06	< 1 nM	0.00026 s⁻¹	1.1e+06 M⁻¹ s⁻¹	< 1 nM	0.00028 s⁻¹	1.1e+06 M⁻¹ s⁻¹	17 nM	0.0045 s⁻¹	270000 M⁻¹ s⁻¹	116 nM	0.0091 s⁻¹	79000 M⁻¹ s⁻¹	~0.3 nM	1 to 2 nM	B6
0.018 nM	6.22e+06	0.02 nM	1.41e+06	< 1 nM	0.0003 s⁻¹	970000 M⁻¹ s⁻¹	< 1 nM	0.0002 s⁻¹	1e+06 M⁻¹ s⁻¹	17 nM	0.0042 s⁻¹	250000 M⁻¹ s⁻¹	76 nM	0.0072 s⁻¹	96000 M⁻¹ s⁻¹	~0.3 nM	1 to 2 nM	B7
